{"source": "paper PMC2119608", "target": "CD3 gamma subunit, transiently expressed in COS cells (human) (UniProt P09693)", "sequence (P09693 23-182)": "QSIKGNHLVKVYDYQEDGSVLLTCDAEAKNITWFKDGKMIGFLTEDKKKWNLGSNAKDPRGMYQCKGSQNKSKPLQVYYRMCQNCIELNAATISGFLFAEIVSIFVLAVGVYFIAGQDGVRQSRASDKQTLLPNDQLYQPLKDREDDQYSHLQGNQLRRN", "experiment": "co-IP", "data": [{"sequence": "T cell antigen receptor (TCR) beta chain, transiently expressed in COS cells", "values": [{"measurement": "percent bound to CD3 subunits", "result": 60, "unit": "%"}]}]}
